The target in one assay is T1, TNFR1 on cells (human, UniProt P19438 30-455).
T1 sequence: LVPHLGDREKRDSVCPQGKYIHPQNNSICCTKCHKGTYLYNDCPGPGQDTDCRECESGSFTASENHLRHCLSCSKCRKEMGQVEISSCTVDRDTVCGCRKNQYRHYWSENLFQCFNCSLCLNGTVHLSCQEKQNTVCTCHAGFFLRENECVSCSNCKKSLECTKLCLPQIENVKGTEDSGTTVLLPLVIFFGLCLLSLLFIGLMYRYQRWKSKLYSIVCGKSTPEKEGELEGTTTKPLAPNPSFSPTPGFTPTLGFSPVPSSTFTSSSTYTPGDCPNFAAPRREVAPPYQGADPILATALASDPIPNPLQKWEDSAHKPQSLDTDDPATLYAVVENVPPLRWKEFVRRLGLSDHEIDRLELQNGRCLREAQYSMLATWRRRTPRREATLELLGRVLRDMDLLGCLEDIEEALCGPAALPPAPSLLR
Kind of assay: cell-based or functional assay.

Assay [1] has as its target T2, extracellular domain of TNFR-1 (human, UniProt P19438 30-211).
T2 construct: The construct limits, tag, supplier and species are not restated there; also called TNFR1 extracellular domain; tumor necrosis factor receptor-1 (TNFR1)
T2 sequence: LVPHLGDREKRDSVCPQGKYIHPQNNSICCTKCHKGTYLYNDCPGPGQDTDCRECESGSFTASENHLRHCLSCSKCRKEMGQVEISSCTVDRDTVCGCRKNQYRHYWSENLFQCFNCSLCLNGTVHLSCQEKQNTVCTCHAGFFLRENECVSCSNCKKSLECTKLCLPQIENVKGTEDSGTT
Put plainly: SPR (Biacore), Vhh on TNFR1 extracellular domain. How it is done: (§1) Each of Vhh 1-4 subsequently was tested in binding studies using the surface plasmon resonance (SPR) method (Sciences GL. Biacore Assay Handbook. General Electric Company (2012); and Richter et al. (2019) MAbs 11:166-177). Competition assays of Vhh inhibition of TNF-a binding to TNFR1 extracellular domain also were performed as described in Richter et al. (2019).

Assay [2] addresses T2, extracellular domain of TNFR-1. Put plainly: competition assay, Vhh inhibition of TNF binding to TNFR1; competitor TNF-a. The method, then:
as §1

B1: Vhh-2 (VHH, not shown: small tags and cut ends)
VHH: EVQLLESGGGLVQPGGSLRLSCAASGFTFSQYRMHWVRQAPGKSLEWVSSIDTRGSSTYYADPVKGRFTISRDNSKNTLYLQMNSLRAEDTAVYYCAKAVTMFSPFFDYWGQGTLV
notes: it is placed last only by convention; also called Recombinant human anti-TNFRSF1A single domain antibody
Turning to B1, in the assay with TNFR1 on cells, the “TNF Dependent Bioassay (IC50): VCAM” value was found to be 3 nM. The molecule also showed a Kd in assay [1] of 1000 nM.

B2: Vhh-4 (VHH)
VHH: EVQLLESGGGLVQPGGSLRLSCAASGFTFAHETMVWVRQAPGKGLEWVSHIPPDGQDPFYADSVKGRFTISRDNSKNTLYLQMNSLRAEDTAVYHCALLPKRGPWFDYWGQGTLVTVSS
notes: also called DOM1h-131-206
In the case of B2, the “TNF Dependent Bioassay (IC50): VCAM” value with TNFR1 on cells is 0.3 nM. For the same molecule, the IC50 in assay [2] is approximately 1 nM. The molecule further came in with a Kd in assay [1] of 0.00066 nM.

The record behind these values is patent publication US20220288226A1 (ENOSI LIFE SCIENCES, published 2022).
